Reference: US20050287132A1, “Biliverdin reductase fragments and variants, and methods of using biliverdin reductase and such fragments and variants” (University of Rochester, priority 1999, published 2005)

What was measured:
biliverdin reductase [1] = molecular target: T1, biliverdin reductase (Rattus norvegicus, UniProt P46844); assay: Autophosphorylation of biliverdin reductase, in blot method with [γ^32P]-ATP; format: biochemical; conditions: PVDF bound, denatured/renatured
T1 sequence (P46844 3-295): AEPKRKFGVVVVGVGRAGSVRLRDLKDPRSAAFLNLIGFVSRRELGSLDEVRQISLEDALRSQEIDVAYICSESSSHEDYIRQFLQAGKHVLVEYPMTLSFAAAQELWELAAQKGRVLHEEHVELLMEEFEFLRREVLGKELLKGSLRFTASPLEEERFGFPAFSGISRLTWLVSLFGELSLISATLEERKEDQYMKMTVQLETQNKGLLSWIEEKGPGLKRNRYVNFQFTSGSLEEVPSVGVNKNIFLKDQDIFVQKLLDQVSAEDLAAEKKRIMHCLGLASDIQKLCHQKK
Excerpt: The ability of the reductase to phosphorylate itself was examined using the in blot method of Ferrell and Martin (Ferrell et al., Methods Enzymol. 200:430-435 (1991), which is hereby incorporated by reference). Purified wild type or mutant proteins were used.
The ability of the reductase to phosphorylate itself was examined using the in blot method of Ferrell et al., Methods Enzymol. 200:430-435 (1991), which is hereby incorporated by reference. Following electrophoresis on 12.5% SDS-PAGE plus thioglycolate (0.002%), the protein was transferred to PVDF membrane (Millipore). The blot was denatured for I h at room temperature in 7 M guanidine-HCl (pH 8.3) containing 50 mM Tris-base, 50 mM dithiothreitol and 2 mM EDTA and the bound protein was allowed to renature overnight at 4° C. then incubated at room temperature for 4 h in freshly prepared labeling mix containing 10 μCi/ml [γ^32P]-ATP. The membrane first with 30 mM Tris-HCl (pH 7.4) then for 10 min each with 250 ml of the following: with 30 mM Tris-HCl (pH 7.4) twice; with the same buffer containing 0.5% (v/v) NP-40 once; with the Tris buffer twice; with 1 M KOH once; with the Tris buffer, twice . The membrane was blotted, dried, wrapped in plastic wrap, and exposed for autoradiography.

biliverdin reductase [2] = molecular target: T1, biliverdin reductase; assay: Western blot analysis of phosphorylation of purified rat liver BVR; format: biochemical; conditions: individual anti-phosphotyrosine, -serine, -threonine antibodies
Description: 2D-IEF was performed essentially as detailed previously (Huang et al., J. Biol. Chem. 264:7844-7849 (1989), which is hereby incorporated by reference). The first dimension separation of 3.5 μg of the reductase was carried out by isoelectric focusing (Righetti et al., J Chromatogr. 98:271-321 (1974), which is hereby incorporated by reference) using ampholytes with a 4-6.5 pH range. Electrofocusing was carried out for 17 h at 400 volts then for an additional hour at 800 volts. After focusing, the second dimension separation was carried out using 12.5% SDS polyacrylamide gel. […] The secondary antibody was goat anti-rabbit horseradish peroxidase (Zymed) at a 1:1000 dilution. Detection was carried out using the ECL reagent kit (NEN) according to the manufacturer's instructions. Phosphorylation molecular weight markers were used (Zymed). Soybean trypsin inhibitor (pI 4.55), β-lactoglobin A (pI 5.13), bovine carbonic anhydrase (pI 5.85), and human carbonic anhydrase B (pI 6.57) were used as IEF standards. Immunoblotting was performed by the method of Towbin et al, Proc. Nat. Acad. Sci. USA 76:4350-4354 (1979), which is hereby incorporated by reference. Primary and secondary antibody treatments and staining for peroxidase with 4-chloro-1 -naphthol were performed as described previously (Huang et al., J. Biol. Chem. 264:7844-7849 (1989), which is hereby incorporated by reference).

histone III-S = assay: BVR kinase activity, 32P incorporation into exogenous substrate; format: biochemical
Description: (§1) Incubation time was 8 min at 30° C.

HO-1 = assay: as above; format: biochemical, rat
Description: as §1

HO-2 = assay: as above; format: biochemical, rat
Description: as §1

PKC = assay: Effect of BVR and peptides on PKC activity (MBP substrate, kinetic analysis); format: biochemical
Description: FIGS. 11A-C are graphs depicting the role of BVR in increasing protein kinase C activity. FIG. 11A depicts the dose-dependence of PKC activity in the presence of BVR or PKC inhibitor peptide (“PKCI”) in an assay system containing 0.5 μg/ml PKC, 50 μM unlabeled ATP, 5 μCi[^32γP]-ATP and 1 mg/ml MBP and carried out as described infra. FIGS. 11B-C are the kinetic analyses of PKC activity carried out with respect to MBP (FIG. 11B) and with respect to ATP (FIG. 11C) in the presence or absence of 50 μM BVR.
FIGS. 12A-C are graphs illustrating the effect of various rBVR fragments on PKC activity. Protein kinase C was incubated at 30° C. with buffer or with the indicated peptides (50 μM) for 15 min prior to addition to a kinase assay using MBP as substrate. FIG. 12A depicts the relative activity for each sample normalizing to that of the PKC and buffer control value. FIGS. 12B-C are the kinetic analyses of PKC with respect to substrate MBP (FIG. 12B) and ATP (FIG. 12C) in the presence or absence of BVR peptide fragments (50 μM). BVR1 peptide corresponds to SEQ. ID. No. 34 and BVR2 peptide corresponds to SEQ. ID. No. 19.
as §1

[3] = tested on: PKC (a mixture containing equal amounts of isozymes α, β and γ); assay: Overlay assay for PKC binding by rat BVR; conditions: 2 μg rat liver BVR, 500 ng/ml PKC
Description: The physical interaction of BVR with PKC was assessed using an overlay assay based on that described by Wolf and Sahyoun (J. Biol. Chem. 261:13327-13331 (1986), which is hereby incorporated by reference) with known modifications (Chapline et al., J. Biol. Chem. 268:6858-6861 (1993), which is hereby incorporated by reference). Purified rat liver BVR (2 μg) was subjected to SDS-PAGE and transferred to nitrocellulose membrane. The membrane was blocked, washed, and then overlaid with a solution containing 500 ng/ml of PKC (a mixture containing equal amounts of isozymes α, β and γ) (Promega) in TBS containing 10 mg/ml BSA, 20 μg/ml phosphatidylserine, 1 mM EGTA, 1.2 mM CaCl2, 10 μg/ml leupeptin and 10 μg/ml aprotinin. After incubation for 1 h at room temperature, the blot was extensively washed with the PBS containing the same supplements as the overlay solution, but lacking the kinase mixture. The protein on the membrane was fixed by incubation in 0.5% formaldehyde in PBS and then reactive aldehyde groups were blocked by incubation in 2% glycine in TBS for 20 min at room temperature. The membrane was then washed 3 times with TBS and was cut in two, one half was subjected to Western blot analysis using a 1:1000 dilution of anti-PKC for 2 h at room temperature as the primary antibody, while the second half was probed with rabbit anti-rat BVR as detailed above for Western blotting. […]

[4] = Reductase activity of BVR purified from rat liver; format: biochemical; conditions: purified to homogeneity
Description: BVR was purified from rat liver to homogeneity (3,000 nmol bilirubin/min/mg protein) as described before (O'Carra et al., J. Biochem. 125:110P (1971), which is hereby incorporated by reference), with modifications (Huang et al., J. Biol. Chem. 264:7844-7849 (1989), which is hereby incorporated by reference). Activity was determined at pH 8.7 with NADPH in Tris-HCl with […] in potassium phosphate buffer. The substrate concentration was 5 μM. The rate of activity was measured by the increase in 450 nm absorbance at 25° C. The purified reductase, which was judged to be homogenous by SDS-PAGE, stained with Coomasie Brilliant Blue (Sigma), was used for preparation of polyclonal antibody in New Zealand rabbits (O'Carra et al., J. Biochem. 125:110P (1971), which is hereby incorporated by reference). Protein concentration was determined by Bradford's method (Bradford, Anal. Biochem. 72:248-254 (1976), which is hereby incorporated by reference).

MBP = conditions: ^32P incorporation
Description: Kinase reactions were carried out based on the assay as described by Roskoski (Roskoski, Methods Enzymol. 99:3-6 (1983), which is hereby incorporated by reference) in a 50 μl volume in a reaction buffer consisting of 20 mM Tris HCl (pH 7.4) containing 10 mM MgCl2, 50 mM unlabeled ATP, 5 μCi [γ^32 P]-ATP and 1 mg/ml substrate. Substrates used were prepared as 10 mg/ml stock in 0.2 M Tris-HCl (pH 7.4) and stored at -20° C. The substrates utilized were MBP and histone III-S (Sigma) and E. coli expressed purified preparations of full length rat HO-1 and HO-2 (McCoubrey et al., J. Biol. Chem. 272:12568-12574 (1997), which is hereby incorporated by reference). The substrate/reaction buffer was incubated at 30° C. for 4 min prior to the addition of 5 μl of enzyme source (2 mg/ml BVR, 0.5 μg/ml PKC) or enzyme vehicle (GST-PBS containing 10% glycerol). Samples were mixed by aspiration and were then incubated for 8-15 min at 30° C. An aliquot (40 μl) from the reaction mixture was spotted onto a P81 (Whatman) filter, which was immediately immersed in 75 mM phosphoric acid for ≧5 min. Filters were washed 5× for 5 min each in 75 mM phosphoric acid and then 1× for 5 min with acetone before being air dried and counted by liquid scintillation counting in 10 ml ScintiVerse BD (Fisher). […] Activity was determined as ^32P counts incorporated into the acceptor protein per minute. […]

[5] = in the presence of 50 μM BVR or peptide

B1: BVR: rat biliverdin reductase, SEQ. ID. No. 4, purified from rat liver (Example 3) (protein, listed as Rattus norvegicus)
chain: MDAEPKRKFGVVVVGVGRAGSVRLRDLKDPRSAAFLNLIGFVSRRELGSLDEVRQISLEDALRSQEIDVAYICSESSSHEDYIRQFLQAGKHVLVEYPMTLSFAAAQELWELAAQKGRVLHEEHVELLMEEFEFLRREVLGKELLKGSLRFTASPLEEERFGFPAFSGISRLTWLVSLFGELSLISATLEERKEDQYMKMTVQLETQNKGLLSWIEEKGPGLKRNRYVNFQFTSGSLEEVPSVGVNKNIFLKDQDIFVQKLLDQVSAEDLAAEKKRIMHCLGLASDIQKLCHQKK
autophosphorylation (biliverdin reductase [1]): able to phosphorylate itself | phosphoamino acids present (biliverdin reductase [2]): esterified on tyrosine (panel b), serine (panel c), and threonine (panel d) residues | phosphate transferred by BVR to histone III-S (histone III-S): ~1,000 cpm/min | HO-1 as substrate for BVR phosphotransferase activity (HO-1): not substrates | HO-2 as substrate for BVR phosphotransferase activity (HO-2): not substrates | effect on Km of the PKC reaction with respect to ATP (PKC; BVR 50 μM): negligible | dose dependence of PKC activity (^32P into MBP) (PKC; PKC preincubated 15 min at 30° C., MBP substrate): increased in a dose-dependent manner | Vmax of the PKC reaction with respect to ATP (PKC; [5]): 2.9 pmol/min | Vmax of the PKC reaction with respect to MBP (PKC; [5]): 4.9 pmol/min | substrate Km of the PKC reaction (PKC; upon addition of BVR (50 μM), MBP): 0.16 mg/mL | PKC binding (overlay, anti-PKC Western) [3]: PKC-interactive protein | specific activity of purified rat liver BVR [4]: 3,000 nmol bilirubin/min/mg protein | phosphate transferred by BVR to MBP (MBP): ~4,000 cpm/min
